Source: article PMC10248797, “Ndel1 disfavors dynein–dynactin–adaptor complex formation in two distinct ways” (The Journal of Biological Chemistry, 2023)
Numbering of substitutions follows the chain as printed. Numbers in names are those of the source.

T1: Lis1 (UniProt P43034 1-410)
T1 construct: Lis1; also called ZZ-TEV-Lis1; source: Sf9 cells, purified (IgG Sepharose, TEV cleavage, size-exclusion chromatography); not shown: ZZ, N-terminal, cleaved
T1 sequence (looked up): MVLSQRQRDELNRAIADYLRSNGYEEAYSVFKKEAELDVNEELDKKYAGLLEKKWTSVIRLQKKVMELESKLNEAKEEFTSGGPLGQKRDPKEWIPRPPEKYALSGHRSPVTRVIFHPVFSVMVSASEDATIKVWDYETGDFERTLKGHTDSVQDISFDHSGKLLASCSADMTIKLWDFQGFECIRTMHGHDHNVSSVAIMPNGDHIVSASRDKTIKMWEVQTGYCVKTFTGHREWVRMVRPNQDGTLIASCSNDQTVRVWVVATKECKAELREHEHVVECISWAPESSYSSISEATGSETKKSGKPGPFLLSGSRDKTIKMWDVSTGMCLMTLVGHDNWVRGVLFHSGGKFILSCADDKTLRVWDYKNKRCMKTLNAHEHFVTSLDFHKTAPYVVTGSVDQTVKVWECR

B1: Full-length Ndel1 with N-terminal HaloTag and C-terminal 6X-His tag (natural protein, UniProt Q9GZM8 1-345, looked up)
chain: MDGEDIPDFSSLKEETAYWKELSLKYKQSFQEARDELVEFQEGSRELEAELEAQLVQAEQRNRDLQADNQRLKYEVEALKEKLEHQYAQSYKQVSVLEDDLSQTRAIKEQLHKYVRELEQANDDLERAKRATIVSLEDFEQRLNQAIERNAFLESELDEKESLLVSVQRLKDEARDLRQELAVRERQQEVTRKSAPSSPTLDCEKMDSAVQASLSLPATPVGKGTENTFPSPKAIPNGFGTSPLTPSARISALNIVGDLLRKVGALESKLAACRNFAKDQASRKSYISGNVNCGVLNGNGTKFSRSGHTSFFDKGAVNGFDPAPPPPGLGSSRPSSAPGMLPLSV
notes: Coupled to Magne HaloTag beads through the HaloTag; also called FL-Ndel1; Halo-Ndel1; source: Sf9 cells, purified (IgG Sepharose, TEV cleavage, size-exclusion chromatography); not shown: ZZ, N-terminal, cleaved; HaloTag, N-terminal, kept; His6, C-terminal, kept
B2: Halo-tagged full-length Ndel1 with the four CDK1 sites mutated to aspartic acid (S198D; T219D; S231D; S242D), with C-terminal 6X-His tag (natural protein, UniProt Q9GZM8 1-345, looked up)
chain: B1 chain with S198D, T219D, S231D, S242D
notes: Ndel1 with four phosphomimetic mutations; also called FL-Ndel1^PM; Ndel1^PM; source: Sf9, purified (IgG Sepharose, TEV cleavage, SEC); not shown: ZZ, N-terminal, cleaved; HaloTag, N-terminal, kept; His6, C-terminal, kept
B3: Halo-tagged full-length Ndel1 with C-terminal 6X-His tag (natural protein, UniProt Q9GZM8 1-345, looked up)
chain: B1 chain
notes: Ndel1; 345 residues by the printed range 194-345; also called FL-Ndel1; ZZ-TEV-Halo-Ndel1-His6; source: Sf9, purified (IgG Sepharose, TEV cleavage, SEC); not shown: ZZ, N-terminal, cleaved; HaloTag, N-terminal, kept; His6, C-terminal, kept
B4: Full-length phosphomimetic Ndel1 (S198D; T219D; S231D; S242D) with N-terminal HaloTag and C-terminal 6X-His tag (natural protein, UniProt Q9GZM8 1-345, looked up)
chain: B1 chain with S198D, T219D, S231D, S242D
notes: Ndel1 with the four CDK1 sites changed to aspartic acid; also called FL-Ndel1PM; Halo-Ndel1PM; source: Sf9 cells, purified (IgG Sepharose, TEV cleavage, size-exclusion chromatography); not shown: ZZ, N-terminal, cleaved; HaloTag, N-terminal, kept; His6, C-terminal, kept
B5: Halo-tagged Ndel1 with the C-terminal coiled coil (256-291) deleted, with C-terminal 6X-His tag (natural protein, UniProt Q9GZM8 1-345, looked up)
chain: MDGEDIPDFSSLKEETAYWKELSLKYKQSFQEARDELVEFQEGSRELEAELEAQLVQAEQRNRDLQADNQRLKYEVEALKEKLEHQYAQSYKQVSVLEDDLSQTRAIKEQLHKYVRELEQANDDLERAKRATIVSLEDFEQRLNQAIERNAFLESELDEKESLLVSVQRLKDEARDLRQELAVRERQQEVTRKSAPSSPTLDCEKMDSAVQASLSLPATPVGKGTENTFPSPKAIPNGFGTSPLTPSARISALNINCGVLNGNGTKFSRSGHTSFFDKGAVNGFDPAPPPPGLGSSRPSSAPGMLPLSV
notes: Ndel1 with residues 256-291 deleted; also called Ndel1^ΔCTCC; FL-Ndel1^ΔCTCC; source: Sf9, purified (IgG Sepharose, TEV cleavage, SEC); not shown: ZZ, N-terminal, cleaved; HaloTag, N-terminal, kept; His6, C-terminal, kept
B6: Lis1 (in solution) (natural protein, UniProt P43034 1-410, looked up)
chain: T1 sequence (looked up)
B7: Halo-Lis1 (natural protein, UniProt P43034 1-410, looked up)
chain: T1 sequence (looked up)
notes: Lis1; also called ZZ-TEV-Halo-Lis1; Lis1-conjugated beads; source: Sf9, purified (IgG Sepharose, TEV cleavage, SEC); not shown: ZZ, N-terminal, cleaved; HaloTag, N-terminal, kept
B8: Halo-tagged Ndel1(1-192), N-terminal coiled coil only, with C-terminal 6X-His tag (domain or fragment, UniProt Q9GZM8 1-192, looked up)
chain: MDGEDIPDFSSLKEETAYWKELSLKYKQSFQEARDELVEFQEGSRELEAELEAQLVQAEQRNRDLQADNQRLKYEVEALKEKLEHQYAQSYKQVSVLEDDLSQTRAIKEQLHKYVRELEQANDDLERAKRATIVSLEDFEQRLNQAIERNAFLESELDEKESLLVSVQRLKDEARDLRQELAVRERQQEVTR
notes: Ndel1 residues 1-192; also called NT-Ndel1; ZZ-TEV-Halo-Ndel1(1-192)-His6; source: Sf9, purified (IgG Sepharose, TEV cleavage, SEC); not shown: ZZ, N-terminal, cleaved; HaloTag, N-terminal, kept; His6, C-terminal, kept

How the values were obtained:
Lis1 = target: T1, Lis1; experiment: pull-down; depletion of 5 nM Lis1 from solution by Ndel1 coupled to Magne HaloTag beads; binding buffer with 150 mM KCl; SDS-PAGE densitometry of the supernatant; quadratic binding equation; conditions: both partners purified
[1] = target: T2, SNAP-tagged, recombinant full-length human cytoplasmic dynein-1 with all associated accessory chains (human, UniProt Q14204 1-4646; Q13409-3 1-612; O43237 1-492; P63172 1-113; Q9NP97 1-96; P63167 …); experiment: cell-based or functional assay
Lis1 (in solution) = target: B6; experiment: pull-down; quantitative depletion assay: Ndel1 construct on Magne HaloTag beads via the N-terminal HaloTag; 5 nM Lis1 in solution; binding buffer with 150 mM KCl; SDS-PAGE densitometry; quadratic binding equation; conditions: both partners purified
[2] = target: T2, SNAP-tagged, recombinant full-length …; experiment: pull-down; quantitative depletion assay: 0-600 nM Ndel1 construct coupled to Magne HaloTag beads via the HaloTag; 5 nM dynein in solution, 45 min; binding buffer 30 mM Hepes pH 7.4, 36 mM KCl, 1 mM ADP, 1 mg/ml casein, 0.1% NP-40; supernatant on SDS-PAGE, densitometry; one-site fit with Bmax set to 1; conditions: both partners purified
[3] = target: T2, SNAP-tagged, recombinant full-length …; experiment: pull-down; dynein-Lis1 binding curve (Fig. S4G); one-site fit with Bmax set to 1; who was on the beads is not told for this curve; conditions: both partners purified

Binder: B1
Kd (Lis1): 4.6 nM

Binder: B2
processive landing rate of DDB (smTIRF) with 50 nM FL-Ndel1^PM, against DDB alone [1]: 10 fold reduction
Kd (Lis1 (in solution)): ~4 nM

Binder: B3
landing rate of processive DDB events (smTIRF) with 300 nM FL-Ndel1, against DDB alone [1]: ~5 fold reduction
processive landing rate of DDB (smTIRF) with 50 nM FL-Ndel1, against DDB alone [1]: 1.7 fold reduction
velocity of DDB (smTIRF) with 300 nM FL-Ndel1, against DDB alone [1]: ~2 fold reduction
Kd [2]: ~33 nM
Kd (Lis1 (in solution)): ~4 nM

Binder: B4
Kd (Lis1): 3.9 nM

Binder: B5
Kd [2]: 55 nM

Binder: B6
landing rate of DDB (smTIRF) with 50 nM Lis1 and 50 nM FL-Ndel1^PM together, against DDB alone [1]: ~2 fold reduction

Binder: B7
Kd [3]: 101 nM

Binder: B8
landing rate of processive DDB events (smTIRF) with 300 nM NT-Ndel1, against DDB alone [1]: ~2 fold reduction
velocity of DDB (smTIRF) with 300 nM NT-Ndel1, against DDB alone [1]: ~2 fold reduction
Kd [2]: 79 nM
Kd (Lis1 (in solution)): ~1.2 nM
